According to patent US20140057311A1, “Device For High Throughput Investigations Of Multi-Cellular Interactions” (priority 2010, published 2014):

Experiments:
[1] = test system: dorsal root ganglion (DRG) neurons; assay: DRG axonal outgrowth and turning under slit-2 gradient after 5-FU treatment; assay type: cell-based, mice
Procedure: (§1) Primary hippocampal neurons and dorsal root ganglion (DRG) neurons cultured in the devices were obtained from embryonic day 14.5-16.5 mice as per protocols described in detail elsewhere (R. Li, Methods. Cell. Biol., 1998, 57, 167; W. E. Thomas, Life. Sci., 1986, 38, 297; A. V. Kwiatkowski, et al., Neuron, 2007, 56, 441). Cells from micro-dissected cortices were dissociated and resuspended in serum-free media at a final concentration of 10 million cells/mL. The neurons were seeded into the devices (n=10 devices per test condition) immediately after dissociation and cultured for 1-2 days, with serum-free media replaced in all the channels twice a day, before any guidance cue was introduced. All cell cultures were maintained in a humidified incubator at 5% CO2 and 37° C. For netrin-1 studies (FIGS. 11A-11C), hippocampal neurons were transfected using amaxa nucleofection, with a pmax-gfp plasmid cotransfected with a plasmid expressing DCC (deleted in colorectal cancer) receptor (M. J. Galko and M. Tessier-Lavigne, Science, 2000, 289, 1365).
(§2) Netrin-1 added in the channel was obtained from multiple sources: lab-isolated (T. Serafini, et al., Cell, 1994, 78, 409) netrin-1 (0.1-10 μg/mL), and netrin-1 released from cDNA transfected stable fibroblast cell line (K. Löw, et al., J. Neurosci., 2008, 28, 1099). […] Brain pulp was prepared in the lab from fresh whole mouse brain tissues. Briefly, the brain tissue was homogenized with a rotor stator in a hypotonic solution supplemented with protease inhibitors (protease inhibitor cocktail; Roche, USA), filtered, total protein content measured using a Bradford protein assay, and diluted to […] concentration. […]
(§3) Phase-contrast, fluorescence and confocal microscopy were used to characterize axonal distribution and quantify axonal turning in 3D collagen gels within the devices. […] The last 100 μm segment along the length of each axon leading to the growth cone was traced with NeuronJ (E. Meijering, et al., Cytometry. Part. A, 2004, 58, 167), and the angle this segment makes with the horizontal line (0°) was measured. […]

[2] = test system: Human Lung Cancer Cell Line A549 aggregates; assay: A549 cancer aggregate break-up/migration in collagen gel with HUVEC monolayer, high throughput microfluidic device; assay type: cell-based
Procedure: Red colure cells are from Human Lung Cancer Cell Line A549 were transfected with H2B protein (m-Cherry), and partially disassociated, yielding cell aggregates of random sizes, between 40 um and 70 um. This was aspirated through a 100 micrometer strainer, yielding a media with cell aggregates with radii under 100 micrometers. This was poured through a second 40-micrometer filter, yielding a media with A549 aggregates between 40 and 100 micrometers. The cells were then centrifuged at 800 rpm for 2 minutes, and the media aspirated.
Collagen gel was prepared by adding 9 microliters of 1 M NaOH to 20 microliters of Phosphate Buffered Solution (BD Bioscience), and then adding 46 microliters of ultrapure H2O. Finally, 125 microliters of Type I Rat Tail Collagen at 2.5 mg/mL (BD Biosciences) were added, and mixed thoroughly.
The A549 aggregates were then mixed with the collagen gel, yielding a mixture of aggregates within the gel. Ten microliters of the gel were then injected into the center channel of the device shown in FIGS. 1 and 2, yielding 36 distinct gel-fluid interfaces within the device.
Human Umbilical Vein Endothelial Cells were transfected by GFP protein label disassociated, and flowed into the first media channel. Media without cells was added to the second channel. Adding a small bubble of media on each port of the first media channel yielded a hydrostatic pressure gradient, pushing cells to the gel-media interfaces. The pressure gradient was maintained for one hour, before the bubbles were removed. The device was cultured, and imaged at 0, 12, 36, 60, 84, and 108 hours. The endothelial cells were seen to create an endothelial monolayer along the bottom of the media channel, as well as on the gel-media interface.
In the control group, no drugs were added to the system. In the experimental group, the commercial cancer anti-metastatic drug Iressa (AstraZeneca), an EGFR-TK enzyme blocker, was added to the endothelial cell medium in doses of 100 nM, 500 nM, 1000 nM, 1500 nM, and 2000 nM. […]

[3] = test system: dorsal root ganglion (DRG) neurons; assay: DRG neuron migration into 3D collagen scaffold under slit-2 gradient; assay type: cell-based, mice; details: slit-2 250 ng/mL
Procedure: as §1, §2, §3

hippocampal neurons = assay: Hippocampal axonal turning under guidance cue gradient in 3D collagen gel, spider microfluidic device; assay type: cell-based, mice
Procedure: as §1
Netrin-1 added in the channel was obtained from multiple sources: lab-isolated (T. Serafini, et al., Cell, 1994, 78, 409) netrin-1 (0.1-10 μg/mL), and netrin-1 released from cDNA transfected stable fibroblast cell line (K. Löw, et al., J. Neurosci., 2008, 28, 1099). […] Brain pulp was prepared in the lab from fresh whole mouse brain tissues. Briefly, the brain tissue was homogenized with a rotor stator in a hypotonic solution supplemented with protease inhibitors (protease inhibitor cocktail; Roche, USA), filtered, total protein content measured using a Bradford protein assay, and diluted to […] concentration. The chemorepellant used was Slit-2 (62.5 or 250 ng/mL; R&D Systems, Minneapolis, Minn.)). For chemosensing studies, the medium was removed from all the ports after 24-48 h of cell seeding, and 350 μL medium containing known concentration of guidance cue was introduced in the chemoattractant channel, and 350 μL serum-free media in each of the remaining two channels. For the experiments with netrin-1 being released from fibroblasts, transfected fibroblasts (1×10^5 cells) were seeded in the chemoattractant channel (source), and normal fibroblasts (non-transfected, 1×10^5 cells) were seeded in the left channel (sink). […] Netrin-1 released from the transfected fibroblasts diffuses across the collagen-1 gel and creates a gradient. The medium was changed at regular intervals to maintain chemogradient at all times. The control devices which received no guidance cues were cultured in the same procedure as with test cases.
as §3, with “devices. Florescent and phase contrast images were acquired with a Nikon TE300 microscope equipped with a Hamamatsu camera and Openlab image acquisition software. Axonal and nuclei staining were performed after fixation with 4% PFA (30 min).” for “devices.”

[4] = slit-2 250 ng/mL in the right channel, n=64 axons

Question: For `O=c1[nH]cc(F)c(=O)[nH]1` [5-FU, 5-fluorourasil, reference compound], which “DRG cell migration into the scaffold” value ([1]; 5-FU 10^−5 M seeded with DRG explants on day 0, 24 h culture) is on record?
Answer: no cell migration into the scaffold was observed

Question: What does the source list for `COc1cc2ncnc(Nc3ccc(F)c(Cl)c3)c2cc1OCCCN1CCOCC1` [Iressa]?
Answer: behaviour of A549 cancer aggregates ([2]; 100 nM and 500 nM drug concentrations): cancer aggregates were seen to break up; behaviour of A549 cancer aggregates ([2]; 1000 nM, 1500 nM and 2000 nM drug concentrations): the cancer aggregates stayed intact; minimum effective dose ([2]; drug in endothelial cell medium, keeps A549 aggregates intact): 1000 nM

B1: slit-2: chemorepellant guidance cue Slit-2 (R&D Systems) (protein, UniProt O94813 31-1529, looked up)
Slit homolog 2 protein: QCSCSGSTVDCHGLALRSVPRNIPRNTERLDLNGNNITRITKTDFAGLRHLRVLQLMENKISTIERGAFQDLKELERLRLNRNHLQLFPELLFLGTAKLYRLDLSENQIQAIPRKAFRGAVDIKNLQLDYNQISCIEDGAFRALRDLEVLTLNNNNITRLSVASFNHMPKLRTFRLHSNNLYCDCHLAWLSDWLRQRPRVGLYTQCMGPSHLRGHNVAEVQKREFVCSGHQSFMAPSCSVLHCPAACTCSNNIVDCRGKGLTEIPTNLPETITEIRLEQNTIKVIPPGAFSPYKKLRRIDLSNNQISELAPDAFQGLRSLNSLVLYGNKITELPKSLFEGLFSLQLLLLNANKINCLRVDAFQDLHNLNLLSLYDNKLQTIAKGTFSPLRAIQTMHLAQNPFICDCHLKWLADYLHTNPIETSGARCTSPRRLANKRIGQIKSKKFRCSAKEQYFIPGTEDYRSKLSGDCFADLACPEKCRCEGTTVDCSNQKLNKIPEHIPQYTAELRLNNNEFTVLEATGIFKKLPQLRKINFSNNKITDIEEGAFEGASGVNEILLTSNRLENVQHKMFKGLESLKTLMLRSNRITCVGNDSFIGLSSVRLLSLYDNQITTVAPGAFDTLHSLSTLNLLANPFNCNCYLAWLGEWLRKKRIVTGNPRCQKPYFLKEIPIQDVAIQDFTCDDGNDDNSCSPLSRCPTECTCLDTVVRCSNKGLKVLPKGIPRDVTELYLDGNQFTLVPKELSNYKHLTLIDLSNNRISTLSNQSFSNMTQLLTLILSYNRLRCIPPRTFDGLKSLRLLSLHGNDISVVPEGAFNDLSALSHLAIGANPLYCDCNMQWLSDWVKSEYKEPGIARCAGPGEMADKLLLTTPSKKFTCQGPVDVNILAKCNPCLSNPCKNDGTCNSDPVDFYRCTCPYGFKGQDCDVPIHACISNPCKHGGTCHLKEGEEDGFWCICADGFEGENCEVNVDDCEDNDCENNSTCVDGINNYTCLCPPEYTGELCEEKLDFCAQDLNPCQHDSKCILTPKGFKCDCTPGYVGEHCDIDFDDCQDNKCKNGAHCTDAVNGYTCICPEGYSGLFCEFSPPMVLPRTSPCDNFDCQNGAQCIVRINEPICQCLPGYQGEKCEKLVSVNFINKESYLQIPSAKVRPQTNITLQIATDEDSGILLYKGDKDHIAVELYRGRVRASYDTGSHPASAIYSVETINDGNFHIVELLALDQSLSLSVDGGNPKIITNLSKQSTLNFDSPLYVGGMPGKSNVASLRQAPGQNGTSFHGCIRNLYINSELQDFQKVPMQTGILPGCEPCHKKVCAHGTCQPSSQAGFTCECQEGWMGPLCDQRTNDPCLGNKCVHGTCLPINAFSYSCKCLEGHGGVLCDEEEDLFNPCQAIKCKHGKCRLSGLGQPYCECSSGYTGDSCDREISCRGERIRDYYQKQQGYAACQTTKKVSRLECRGGCAGGQCCGPLRSKRRKYSFECTDGSSFVDEVEKVVKCGCTRCVS
Question: How did the “DRG neuron migration down the gradient, percentage in Q3” value [3] turn out when B1 was run?
Answer: 74±12.5%

Question: What about the “increase in DRG neuron migration down the gradient relative to controls” value ([3]; p<0.001 vs. controls) of the same molecule?
Answer: 5 fold

Question: And the “increase in DRG neuron migration down the gradient relative to 62.5 ng/mL slit-2 gradient” value ([3]; p<0.01)?
Answer: 2.7 fold

Question: What about the “percentage of axons that turned away from the high concentration, 250 ng/mL versus 62.5 ng/mL” value (hippocampal neurons; increasing slit-2 from 62.5 ng/mL to 250 ng/mL, p<0.001) of the same molecule?
Answer: tripled

Question: And the “chemorepellent effect on hippocampal axonal turning” value (hippocampal neurons; slit-2 62.5 ng/mL, n=51 axons)?
Answer: did not exhibit similar strong repellent characteristics

Question: And the “percentage of axons in Q1 (towards guidance cue)” value (hippocampal neurons; [4])?
Answer: 18.2±4.5%

Question: What about the “percentage of axons in Q3 (away from guidance cue)” value (hippocampal neurons; [4]) of the same molecule?
Answer: 42.6±9.1%

Question: And the “enhancement of axonal turning down the gradient relative to controls which received no cues” value (hippocampal neurons; slit-2 250 ng/mL, p<0.001)?
Answer: 3.4 fold

Question: And the “percentage of DRG axons repelled” value ([1]; slit-2 250 ng/mL in right hand channel after 24 h 5-FU, p<0.03 vs. controls)?
Answer: 70±14.2%

Question: What about the “inhibition of DRG neuron axonal turning into Q1 relative to control cultures” value ([1]; slit-2 250 ng/mL, p<0.05 vs. controls) of the same molecule?
Answer: 56%
